Laboratory results: patent publication EP3150637A1 (F. Hoffmann-La Roche AG, dated 2017)

Target: T1, human VEGFA-121 (VEFG-A-121-His) (human, UniProt P15692-9 27-147)
T1 construct: Captured on an anti-His antibody surface; not shown: His tag
T1 sequence (looked up): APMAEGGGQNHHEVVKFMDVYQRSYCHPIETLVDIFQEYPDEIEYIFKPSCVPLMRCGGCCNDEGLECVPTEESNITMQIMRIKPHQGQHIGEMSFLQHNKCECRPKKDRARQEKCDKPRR
Assay: SPR (Biacore T200), VEGF-A-121-His captured on anti-His, antibody in solution, Langmuir 1:1

B1: Ang2VEGF-0477 (bispecific antibody, human IgG1, kappa)
light 1: QPGLTQPPSVSVAPGQTARITCGGNNIGSKSVHWYQQKPGQAPVLVVYDDSDRPSGIPERFSGSNSGNTATLTISRVEAGDEADYYCQVWDSSSDHYVFGTGTKVTVLRTVAAPSVFIFPPSDEKLKSGTASVVCLLNNFYPREAKVQWKVDNALQSGNSQESVTEQDSKDSTYSLSSTLTLSKADYEKHKVYACEVTHQGLSSPVTKSFNRGEC
heavy 1: not shown
light 2: DIQMTQSPSSLSASVGDRVTITCSASQDISNYLNWYQQKPGKAPKVLIYFTSSLHSGVPSRFSGSGSGTDFTLTISSLQPEDFATYYCQQYSTVPWTFGQGTKVEIKSSASTKGPSVFPLAPSSKSTSGGTAALGCLVKDYFPEPVTVSWNSGALTSGVHTFPAVLQSSGLYSLSSVVTVPSSSLGTQTYICNVNHKPSNTKVDKKVEPKSC
heavy 2: not shown
notes: Bivalent bispecific CrossMAb CH1-CL
B1 was tested, and the koff was 6.11e-05 s⁻¹.
